B1: Azoarcus group I ribozyme (parent)
chain: GUGCCUUGCGCCGGGAAACCACGCAAGGGAUGGUGUCAAAUUCGGCGAAACCUAAGCGCCCGCCCGGGCGUAUGGCAACGCCGAGCCAAGCUUCGGCGCCUGCGCCGAUGAAGGUGUAGAGACUAGACGGCACCCACCUAAGGCAAACGCUAUGGUGAAGGCAUAGUCCAGGGAGUGGCGAAAGUCACACAAACCGG

This series covers variants of B1. The experiment in a line: reverse-splicing fitness (ratio to wild type); higher = more active; in vitro selection; Mg2+ level not given. The method in brief: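 An in vitro group I ribozyme library with randomized positions was T7-transcribed and gel-purified. In triplicate, 10 pmol RNA in EPPS pH 7.5 was reacted with 50 pmoles of a 30-nt RNA substrate for 1 h at 37 °C across several added MgCl2 levels (1–48 mM), then stopped with EDTA. Products were reverse transcribed from a substrate-complementary primer, PCR-amplified and sequenced (HiSeq 4000). Fitness is a variant's read proportion after selection over that before, normalised to wild type.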
For C82U A111C A120G A145G C150A C169G U176A, the reverse-splicing fitness worked out at 0.0146.

On to C82U A111C A120G A145G C150A C169G U176C, for which the reverse-splicing fitness stood at 0.0241.

Regarding C82U A111C A120G A145U C150A C169G U176G, the reverse-splicing fitness amounted to 0.00431.

Consider C82U A111C A120G A145U C150A C169G U176C, for which the reverse-splicing fitness was determined as 0.0126.

Consider C82U A111C A120G A145U C150A C169G U176A, for which the reverse-splicing fitness is 0.0105.

For C82U A111C A120C C150A C169G U176C, the reverse-splicing fitness was determined as 0.0184.

With C82U A111C A120C C150A C169G U176A, the reverse-splicing fitness turned out to be 0.0161.

Take C82U A111C A120C C150A C169G U176G: the reverse-splicing fitness was 0.00704.

Consider C82U A111C A120C A145G C169A, for which the reverse-splicing fitness is 0.0092.

On to C82U A111C A120C A145G C169U, for which the reverse-splicing fitness is 0.0129.

For C82U A111C A120C A145G C169G, the reverse-splicing fitness came to 0.00841.

On to C82U A111C A120C A145G C150A C169A U176C, for which the reverse-splicing fitness was found to be 0.0198.

Regarding C82U A111C A120C A145G C150A C169A U176G, the reverse-splicing fitness was 0.00718.

Consider C82U A111C A120G A145G C150A C169U U176A, for which the reverse-splicing fitness was 0.0158.

C82U A111C A120G A145G C150A C169U U176G: the reverse-splicing fitness was 0.00519.

Regarding C82U A111C A120G A145G C150A C169U U176C, the reverse-splicing fitness is 0.0153.

C82U A111C A120G A145G C150A C169A U176C: the reverse-splicing fitness was 0.0218.

Regarding C82U A111C A120G A145G C150A C169A U176G, the reverse-splicing fitness came out at 0.00573.

For the variant C82U A111C A120G A145G C150A C169A U176A, the reverse-splicing fitness turned out to be 0.0155.

Turning to C82U A111C A120G A145G C150G U176G, the reverse-splicing fitness is 0.00607.

Consider C82U A111C A120G A145G C150G U176C, for which the reverse-splicing fitness was 0.0103.

On to C82U A111C A120G A145G C150G U176A, for which the reverse-splicing fitness was found to be 0.00693.

On to C82U A111C A120C A145U C150U C169A U176G, for which the reverse-splicing fitness came out at 0.00665.

As for C82U A111C A120C A145U C150U C169A U176C, the reverse-splicing fitness was found to be 0.00966.

Take C82U A111C A120C A145U C150U C169A U176A: the reverse-splicing fitness was found to be 0.0117.

For C82U A111C A120C C169G U176C, the reverse-splicing fitness turned out to be 0.0186.

Regarding C82U A111C A120C C169G U176G, the reverse-splicing fitness was determined as 0.00563.

Consider C82U A111C A120C C169G U176A, for which the reverse-splicing fitness was found to be 0.0173.

For C82U A111C A120C A145U C150U C169G U176C, the reverse-splicing fitness came to 0.0142.

As to C82U A111C A120C A145U C150U C169G U176A, the reverse-splicing fitness turned out to be 0.0126.

Consider C82U A111C A120C A145U C150U C169G U176G, for which the reverse-splicing fitness worked out at 0.00521.

Take C82U A111C A120C C150G C169A U176A: the reverse-splicing fitness is 0.00943.

Take C82U A111C A120C C150G C169A U176G: the reverse-splicing fitness was found to be 0.00618.

Take C82U A111C A120C C150G C169A U176C: the reverse-splicing fitness is 0.00876.

With C82U A111C A120C C150U U176G, the reverse-splicing fitness was determined as 0.00627.

C82U A111C A120C C150U U176C: the reverse-splicing fitness came to 0.0168.

With C82U A111C A120C C150U U176A, the reverse-splicing fitness was 0.00888.

For C82U A111C A120C C150G C169U U176A, the reverse-splicing fitness is 0.00808.

As to C82U A111C A120C C150G C169U U176G, the reverse-splicing fitness was 0.00565.

Take C82U A111C A120C C150G C169U U176C: the reverse-splicing fitness worked out at 0.0134.

On to C82U A111C A120C C150A C169A U176A, for which the reverse-splicing fitness was determined as 0.0186.

C82U A111C A120C C150A C169A U176C: the reverse-splicing fitness was 0.0136.

In the case of C82U A111C A120C C150A C169A U176G, the reverse-splicing fitness turned out to be 0.00712.

In the case of C82U A111C A120C A145U C150A C169A U176C, the reverse-splicing fitness was 0.00844.

With C82U A111C A120C A145U C150A C169A U176G, the reverse-splicing fitness was 0.00614.

Turning to C82U A111C A120C A145U C150A C169A U176A, the reverse-splicing fitness was determined as 0.0117.

Take C82U A111C A120C A145G U176C: the reverse-splicing fitness stood at 0.0243.

In the case of C82U A111C A120C A145G U176A, the reverse-splicing fitness was 0.0134.

Take C82U A111C A120C A145G U176G: the reverse-splicing fitness worked out at 0.00588.

In the case of C82U A111C A120G A145C C150G C169G U176C, the reverse-splicing fitness was determined as 0.00632.

Take C82U A111C A120G A145C C150G C169G U176A: the reverse-splicing fitness amounted to 0.00836.

As for C82U A111C A120G A145C C150G C169G U176G, the reverse-splicing fitness stood at 0.00437.

Consider C82U A111C A120C C150G U176G, for which the reverse-splicing fitness came out at 0.00336.

Regarding C82U A111C A120C C150G U176C, the reverse-splicing fitness came out at 0.00787.

As to C82U A111C A120C C150G U176A, the reverse-splicing fitness was found to be 0.00528.

Turning to C82U A111C A120C A145G C150U C169A U176A, the reverse-splicing fitness stood at 0.0123.

On to C82U A111C A120C A145G C150U C169A U176C, for which the reverse-splicing fitness is 0.014.

Consider C82U A111C A120C A145G C150U C169A U176G, for which the reverse-splicing fitness amounted to 0.00622.

As for C82U A111C A120C A145U C150A U176A, the reverse-splicing fitness was 0.00905.

On to C82U A111C A120C A145U C150A U176G, for which the reverse-splicing fitness is 0.00561.

For the variant C82U A111C A120C A145U C150A U176C, the reverse-splicing fitness stood at 0.0135.

C82U A111C A120G A145C C150A C169U U176G: the reverse-splicing fitness worked out at 0.00441.

With C82U A111C A120G A145C C150A C169U U176C, the reverse-splicing fitness stood at 0.00704.

C82U A111C A120G A145C C150A C169U U176A: the reverse-splicing fitness was found to be 0.0166.

For C82U A111C A120G A145C C150A C169G U176C, the reverse-splicing fitness came to 0.0127.

With C82U A111C A120G A145C C150A C169G U176G, the reverse-splicing fitness was determined as 0.00512.

Consider C82U A111C A120G A145C C150A C169G U176A, for which the reverse-splicing fitness worked out at 0.0204.

For the variant C82U A111C A120C A145U C169A, the reverse-splicing fitness turned out to be 0.00732.

Take C82U A111C A120C A145U C169G: the reverse-splicing fitness stood at 0.00753.

As to C82U A111C A120C A145U C169U, the reverse-splicing fitness turned out to be 0.0103.

Take C82U A111C A120G A145U C150A: the reverse-splicing fitness came out at 0.00775.

For the variant C82U A111C A120G A145U C150G, the reverse-splicing fitness came out at 0.00658.

For C82U A111C A120C A145U C169A U176C, the reverse-splicing fitness was 0.0103.

In the case of C82U A111C A120C A145U C169A U176A, the reverse-splicing fitness is 0.0107.

Consider C82U A111C A120C A145U C169A U176G, for which the reverse-splicing fitness was found to be 0.00532.

Turning to C82U A111C A120G A145G C150G C169A, the reverse-splicing fitness was determined as 0.0087.

As to C82U A111C A120G A145G C150G C169G, the reverse-splicing fitness was 0.0068.

In the case of C82U A111C A120G A145G C150G C169U, the reverse-splicing fitness came out at 0.00832.

In the case of C82U A111C A120C A145G C169U U176C, the reverse-splicing fitness amounted to 0.0159.

Regarding C82U A111C A120C A145G C169U U176A, the reverse-splicing fitness worked out at 0.0159.

Turning to C82U A111C A120C A145G C169U U176G, the reverse-splicing fitness is 0.00573.

On to C82U A111C A120G A145U C150A C169U, for which the reverse-splicing fitness worked out at 0.006.

Consider C82U A111C A120G A145U C150A C169A, for which the reverse-splicing fitness came to 0.00826.

With C82U A111C A120G A145U C150A C169G, the reverse-splicing fitness was found to be 0.00681.
